B1: POLD4 (parent)
chain: ITDSYPVVKRREGPAGHSKGELAP

Variants of: B1
Assay: protein stability index of a GFP-peptide fusion (GPS, HEK-293T) (PSI 1-6); higher = more stable
Details: c terminus: a fixed tail appended
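Also: lentivirally expressed fusions sorted by FACS into six bins by GFP to DsRed ratio, PSI derived from sequencing read proportions per bin multiplied by bin number.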

Row | Variant | protein stability index
1 | ITDSYPVVKRREGPDGHSKGELAP | 2.81
2 | ITDSYPVVKRREGPCGHSKGELAP | 2.8
3 | ITDSYPVVKRDEGPAGHSKGELAP | 4.79
4 | ITDSYPVVKRPEGPAGHSKGELAP | 3.28
5 | ITDSYPVVKRWEGPAGHSKGELAP | 3.46
6 | ITDSYPVVKREEGPAGHSKGELAP | 5.14
7 | ITDSYPVVKRMEGPAGHSKGELAP | 2.87
8 | ITDSYPVVKRLEGPAGHSKGELAP | 2.98
9 | ITDSYPVVKRVEGPAGHSKGELAP | 2.69
10 | ITDSYPVVKRIEGPAGHSKGELAP | 3.76
11 | ITDSYPVVKRCEGPAGHSKGELAP | 3.68
12 | ITDSYPVVKRNEGPAGHSKGELAP | 3.28
13 | ITDSYPVVKRYEGPAGHSKGELAP | 3.36
14 | ITDSYPVVKRTEGPAGHSKGELAP | 3.33
15 | ITDSYPVVKRHEGPAGHSKGELAP | 3.28
16 | ITDSYPVVKRKEGPAGHSKGELAP | 3.54
17 | ITDSYPVVKRAEGPAGHSKGELAP | 3.23
18 | ITDSYPVVKRFEGPAGHSKGELAP | 2.43
19 | ITDSYPVVKRGEGPAGHSKGELAP | 3.79
20 | ITDSYPVVKRQEGPAGHSKGELAP | 4.37
21 | ITDSYPVVKRSEGPAGHSKGELAP | 3.23
22 | ITDSYPVVKRREGCAGHSKGELAP | 3.14
23 | ITDSYPVVKRREGNAGHSKGELAP | 3.55
24 | ITDSYPVVKRREGLAGHSKGELAP | 3.24

Row | Variant | protein stability index
25 | ITDSYPVVKRREGSAGHSKGELAP | 2.43
26 | ITDSYPVVKRREGIAGHSKGELAP | 3.1
27 | ITDSYPVVKRREGQAGHSKGELAP | 3.89
28 | ITDSYPVVKRREGMAGHSKGELAP | 3.06
29 | ITDSYPVVKRREGAAGHSKGELAP | 3.82
30 | ITDSYPVVKRREGRAGHSKGELAP | 2.46
31 | ITDSYPVVKRREGDAGHSKGELAP | 2.94
32 | ITDSYPVVKRREGVAGHSKGELAP | 1.93
33 | ITDSYPVVKRREGFAGHSKGELAP | 3.28
34 | ITDSYPVVKRREGYAGHSKGELAP | 2.81
35 | ITDSYPVVKRREGGAGHSKGELAP | 2.98
36 | ITDSYPVVKRREGTAGHSKGELAP | 3.57
37 | ITDSYPVVKRREGEAGHSKGELAP | 4.1
38 | ITDSYPVVKRREGWAGHSKGELAP | 2.84
39 | ITDSYPVVKRREGKAGHSKGELAP | 2.97
40 | ITDSYPVVKRREGHAGHSKGELAP | 3.84
41 | ITDSYPVYKRREGPAGHSKGELAP | 4.34
42 | ITDSYPVDKRREGPAGHSKGELAP | 5.21
43 | ITDSYPVCKRREGPAGHSKGELAP | 3.79
44 | ITDSYPVTKRREGPAGHSKGELAP | 4.42
45 | ITDSYPVRKRREGPAGHSKGELAP | 2.88
46 | ITDSYPVEKRREGPAGHSKGELAP | 5.31
47 | ITDSYPVQKRREGPAGHSKGELAP | 3.1
48 | ITDSYPVSKRREGPAGHSKGELAP | 4.84

Row | Variant | protein stability index
49 | ITDSYPVKKRREGPAGHSKGELAP | 3.2
50 | ITDSYPVWKRREGPAGHSKGELAP | 3.16
51 | ITDSYPVNKRREGPAGHSKGELAP | 4.21
52 | ITDSYPVMKRREGPAGHSKGELAP | 3.98
53 | ITDSYPVIKRREGPAGHSKGELAP | 3.26
54 | ITDSYPVPKRREGPAGHSKGELAP | 4.35
55 | ITDSYPVFKRREGPAGHSKGELAP | 4.32
56 | ITDSYPVHKRREGPAGHSKGELAP | 4.07
57 | ITDSYPVVKRRRGPAGHSKGELAP | 2.65
58 | ITDSYPVVKRRYGPAGHSKGELAP | 2.48
59 | ITDSYPVVKRRSGPAGHSKGELAP | 2.69
60 | ITDSYPVVKRRVGPAGHSKGELAP | 2.72
61 | ITDSYPVVKRRCGPAGHSKGELAP | 2.1
62 | ITDSYPVVKRRGGPAGHSKGELAP | 3.01
63 | ITDSYPVVKRRWGPAGHSKGELAP | 2.88
64 | ITDSYPVVKRRMGPAGHSKGELAP | 2.87
65 | ITDSYPVVKRRHGPAGHSKGELAP | 2.72
66 | ITDSYPVVKRRIGPAGHSKGELAP | 3.53
67 | ITDSYPVVKRRTGPAGHSKGELAP | 3.41
68 | ITDSYPVVKRRDGPAGHSKGELAP | 3.08
69 | ITDSYPVVKRRPGPAGHSKGELAP | 3.26
70 | ITDSYPVVKRRQGPAGHSKGELAP | 4.16
71 | ITDSYPVVKRRLGPAGHSKGELAP | 2.87
72 | ITDSYPVVKRRAGPAGHSKGELAP | 2.52

Row | Variant | protein stability index
73 | ITDSYPVVKRRKGPAGHSKGELAP | 3.11
74 | ITDSYPVVKRRNGPAGHSKGELAP | 2.85
75 | ITDSYPVVKRRFGPAGHSKGELAP | 1.86
76 | ITDSYPVVKWREGPAGHSKGELAP | 3.07
77 | ITDSYPVVKDREGPAGHSKGELAP | 4.98
78 | ITDSYPVVKFREGPAGHSKGELAP | 3.57
79 | ITDSYPVVKAREGPAGHSKGELAP | 4.56
80 | ITDSYPVVKQREGPAGHSKGELAP | 3.8
81 | ITDSYPVVKKREGPAGHSKGELAP | 2.39
82 | ITDSYPVVKIREGPAGHSKGELAP | 3.38
83 | ITDSYPVVKYREGPAGHSKGELAP | 4.05
84 | ITDSYPVVKMREGPAGHSKGELAP | 3.16
85 | ITDSYPVVKSREGPAGHSKGELAP | 3.89
86 | ITDSYPVVKHREGPAGHSKGELAP | 4.33
87 | ITDSYPVVKVREGPAGHSKGELAP | 3.94
88 | ITDSYPVVKCREGPAGHSKGELAP | 3.79
89 | ITDSYPVVKEREGPAGHSKGELAP | 4.8
90 | ITDSYPVVKNREGPAGHSKGELAP | 3.92
91 | ITDSYPVVKPREGPAGHSKGELAP | 4.68
92 | ITDSYPVVKGREGPAGHSKGELAP | 4.21
93 | ITDSYPVVKTREGPAGHSKGELAP | 3.6
94 | ITDSYPVVKLREGPAGHSKGELAP | 3.64
